Values quoted from earlier work, collected in PMC9747160.

Target: APOBEC3B CTD (Homo sapiens) (UniProt Q9UH17)
Assay: BLI

Chain of UniProt Q9UH17 (Q9UH17 187-382): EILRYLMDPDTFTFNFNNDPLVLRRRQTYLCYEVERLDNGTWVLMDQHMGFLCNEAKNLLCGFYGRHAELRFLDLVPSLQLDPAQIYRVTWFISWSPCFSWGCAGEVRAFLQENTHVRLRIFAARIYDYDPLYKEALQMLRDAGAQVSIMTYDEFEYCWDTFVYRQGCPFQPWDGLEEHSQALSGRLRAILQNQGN

Which Kd does the source give for BORF2 (from UniProt P03190) here?
Its Kd is 1 nM.
